Results on six molecules are retold here after US20250051443A1 (NATIONAL RESEARCH COUNCIL OF CANADA, published 2025).

Assay [1] addresses T1, human CD3 (human, UniProt P07766 23-207; P09693 23-182; P04234 22-171). Put plainly: flow competition on Jurkat, 100 nM unlabeled mAb; competitor AF488-UCHT1 5 nM. How it is done: (§1) In order to evaluate whether anti-CD3 monoclonal antibodies bind to the same epitope region, flow cytometry competition experiments on Jurkat cells were performed.
(§2) To that effect, a fixed concentration of the indicated AF488-labeled mAb were incubated with 100 nM of unlabeled monoclonal antibodies to assess if their binding capacity was impaired in presence of unlabeled mAbs. […] The AF488-OKT3 mIgG2b was labeled in-house using AlexaFluor488 protein labelling kit (Invitrogen #A10235) following manufacturer's instruction. The free dye removal step was done using Zeba™ Spin Desalting Columns, 7K MWCO (Thermo Scientific #89890). The final product was analyzed by UPLC-SEC to ensure the integrity of the labeled mAb.

The target of assay [2] is T1, human CD3. Nature of the assay: flow cytometry, AF488-labeled mAb on CD3+ Jurkat cells.
For assay [3], the target named is T1, human CD3. Nature of the assay: flow competition on Jurkat, 100 nM unlabeled mAb; competitor AF488-SP34.2 20 nM. How it is done:
as §1, §2

Assay [4] concerns the target T1, human CD3. Nature of the assay: flow competition on Jurkat, 100 nM unlabeled mAb; competitor AF488-SK7 1.5 nM (self).
The target in assay [5] is T1, human CD3. Nature of the assay: flow competition on Jurkat, 100 nM unlabeled mAb; competitor AF488-OKT-3 mIgG2b 1.5 nM (self).
Assay [6] concerns the target T1, human CD3. Nature of the assay: cell-based or functional assay.
Assay [7] concerns the target T1, human CD3. Nature of the assay: flow competition on Jurkat, 100 nM unlabeled mAb; competitor AF488-SK7 1.5 nM. How it is done: as §1, §2
Assay [8] has as its target T1, human CD3. Put plainly: apparent KD (KDapp), flow cytometry titration on purified primary human T cells. How it is done: The binding characteristics of the purified anti-CD3 mAbs were assessed in titration studies on purified human primary T cells from different donor samples. Fresh ex vivo peripheral blood mononuclear cells (PBMCs) were obtained via density centrifugation over Ficoll-Paque using standard procedures and untouched T cell fractions obtained from PBMCs by negative pan-T cell selection and magnetic cell sorting. Starting from 300 nM concentrations of the anti-CD3 mAbs, eight point binding curves were generated from the resultant mean fluorescence intensity (MFI) values obtained through detection of labelled secondary antibody to bound CD3 in flow cytometry experiments (FIGS. 3A and 3B). Both commercial mouse anti-human CD3 mAb (OKT-3; Biolegend) and an in house generated IgG1 version of OKT-3 were employed as positive controls together with a non-specific mouse IgG serving as a negative binding control. Following curve fit analysis using one-site specific binding with Hill slope, the KDapp (concentration needed to achieve a half-maximum binding at equilibrium) for each mAb was calculated (Table 2).
Eight point binding titrations were performed with the anti-CD3 mAbs starting at either 300 or 100 nM on freshly purified human T cells obtained through negative selection from PBMC fractions. Briefly, 1×10⁵ human T cells (50 μL of staining buffer (SB; PBS/1% BSA/0.01% NaN3) were incubated with graded dilutions of the anti-CD3 mAbs in SB ([…]) for 2 hours at 4° C. in 96 w U-bottom plates, followed by plate washing with SB ([…]). Cell pellets were resuspended with 25 μL of a 0.25 mg/mL solution of the goat (Fab′)₂ anti-mouse IgG (H+L)− APC secondary antibody in SB, incubated at 4° C. (30 min.), washed 1× with SB, and resuspended for flow analysis. Recombinant anti-human OKT-3 IgG2b (in house produced) and non-specific mIgG were employed similarly as positive and negative controls respectively. 10K live events were acquired on a BD LSRFortessa flow analyzer and mean fluorescence intensities (MFI) calculated after subtraction of secondary antibody alone values. Using GraphPad Prism software, the data were analyzed using a one site specific binding with Hill slope non-linear regression model to calculate KDapp and BMax values (See Table 2).

In assay [9] the target is T1, human CD3. Put plainly: apparent KD (KDapp), flow cytometry titration on Jurkat cells. How it is done:
Unless otherwise stated, all media are kept are 4° C. and all incubations are performed on wet ice. Exponentially growing Jurkat cells were centrifuged and resuspended in complete medium at a cell density of 2×10⁶ cells/mL. Fifty μL/well of cells were distributed in a polypropylene v-bottom 96 well plate and serial 1/3 dilutions of purified mAbs starting at 300 nM were added and incubated for 2 hours. Cells were washed twice by centrifugation and further incubated with a FITC labeled F(ab′)2 goat anti-mouse antibody (Fc specific, #115-096-071, Jackson Immunoresearch, Cedarlane, Burlington, ON) for an hour. Cells were washed and re-suspended in medium containing Propidium iodide to exclude dead cells from analysis. Samples were filtered through a 60 μm nylon mesh filter plate (Millipore, Ireland) to remove cell aggregates. Flow cytometry analyses were performed on 2,000 viable single-cells events gated on forward scattering, side scattering parameters and propidium iodide dye exclusion using a BD-LSRFortessa flow cytometer (Becton-Dickinson Biosciences, CA, USA) and a standard filter set using BD FACSDiva™ acquisition software, according to manufacturer's instructions.

The target in the next assay is T2, Cynomolgus CD3 (Cynomolgus, UniProt Q95LI5 22-198; Q95LI7 23-181; Q95LI8 22-171).
T2 construct: whole, on cells; also called CD3 on Cynomolgus PBMCs; CD3 on HSC-F Cynomolgus T cell line
Put plainly: apparent KD (KDapp), flow cytometry titration on cynomolgus HSC-F T cell line. How it is done:
To characterize potential cross-reactivity of the anti-human CD3 mAbs to NHP T cells, dose response flow cytometry titration studies were performed on both freshly obtained Cynomolgus PBMCs (Comparative Medicine and Animal Resources Centre—McGill University) or the Cynomolgus derived T cell line, HSC-F (Non-Human Primate Reagent Resource—NIH). Binding studies on fresh Cynomolgus PBMCs was performed on a subset of anti-CD3 mAbs (FIG. 4) whereas the Herpesvirus saimiri immortalized Cynomolgus T cell line HSC-F was employed for further evaluations (FIGS. 5A to 5C). KDapp values were calculated using a non-linear regression model of one-site binding with Hill slope (GraphPad Prism) and tabulated (Table 3b). Similar KDapp values for anti-CD3 mAb 1E2 obtained from binding to fresh Cynomolgus PBMCs (KDapp=0.28 nM) or the HSC-F T cell line (KDapp=0.39 nM) indicated the HSC-F cell line was a suitable surrogate for ex vivo NHP T cells.
HSC-F T cells obtained from the Non-Human Primate Reagent Resource (NIH) were maintained in culture in RPMI media containing 20% FBS and 40 IU/mL recombinant human IL2. 100K HSC-F cells in logarithmic cell growth were treated with graded doses of the anti-CD3 mAbs starting at 100 nM in staining buffer (SB; PBS/1% BSA/0.01% NaN3) for 2 hours at 4° C. in 96 w V-bottom plates. Following plate washing with SB, the cell pellets were resuspended with 25 μL of goat (Fab′)₂ anti-mouse IgG (H+L)− APC secondary antibody (final 5 μg/mL), incubated for 30 minutes at 4° C., followed by flow cytometry analysis. The commercial NHP cross-reactive SP34.2 anti-CD3 mAb (BD Biosciences), recombinant anti-human OKT-3 IgG2b (in house produced) and non-specific mIgG were employed as controls. 20K live events were acquired on a BD LSRFortessa flow analyzer and mean fluorescence intensities (MFI) calculated after subtraction of secondary antibody alone values. Using GraphPad Prism software, the data were analyzed using a one site specific binding with Hill slope non-linear regression model to calculate KDapp and BMax values (See Table 2).

Assay [10] has as its target T1, human CD3. Nature of the assay: cell-based or functional assay. The source holds these as a separate data set.
Assay [11] addresses T1, human CD3. Put plainly: flow cytometry, hybridoma supernatant on CD3+ Jurkat cells. How it is done: Cells were stained with either negative control mouse IgG (Jackson Immunoresearch cat #115-000-003) or an anti-GFP 3E6 mAb supernatant or tested hybridoma supernatant. Specific binding was reflected by the increase in the mean fluorescent intensity of antibody binding to Jurkat T-cells (FIGS. 1A to 1F, grey histograms) compared to the Jurkat CD3 negative cell line J.RT3-T3.5 (FIGS. 1A to 1F, open histograms). AF488 labeled positive control mAb OKT3 was also analyzed.

Assay [12] concerns the target T1, human CD3. Nature of the assay: flow competition on Jurkat, 100 nM unlabeled mAb; competitor AF488-OKT-3 mIgG2b 1.5 nM. How it is done: as §1, §2

Like-named read-outs stand apart in the source and are kept apart here.

As for SK7 (antibody), the values for the % residual fluorescence of labeled mAb with human CD3 [1], with human CD3 [3] and in the assay with human CD3 [4] were 14%, 58% and 9%, respectively. In addition, the MFI with human CD3 [2] was determined as 311 MFI.
As to “recombinant mouse IgG2b OKT-3 produced in-house (antibody)”, the % residual fluorescence of labeled mAb stood at 8% with human CD3 [5], 11% with human CD3 [1], 6% in the assay with human CD3 [7] and 26% in the assay with human CD3 [3]. Further, the % max ref. OKT3 (dTomato activation) with human CD3 [6] is 105%. In addition, the EC50 of dTomato induction (CD69 promoter), Jurkat-CD69-dTomato cells, 24 h in the assay with human CD3 [6] turned out to be 0.17 µg/mL. This molecule also had an IC50, indirect ADC surrogate growth inhibition (anti-mouse-DM1) on Jurkat cells with human CD3 [6] of 0.057 nM. The molecule also showed a Span, indirect ADC surrogate growth inhibition on Jurkat cells in the assay with human CD3 [6] of 91%. Also, the Kd is 0.03 nM with human CD3 [8] and 0.13 to 0.23 nM with human CD3 [9].
In the assay with human CD3 [2], OKT-3 AF488 (antibody) registered an MFI of 265 MFI.

B1: F332-5D4 (antibody, mouse IgG2b, V domains shown)
VH: QVQLQQPGAELGKPGTSVKLSCKASGYTFTSYWMHWVKQRPGQGLEWIGNINPNGGDSNYNEKFKSKATLTVDMSSSTAYMQLSTLTSEDSAVYYCTRDISGQYYFDFWGQGTSLTVFS
VL: DILMSQSPSSLAVSAGEQVTMSCKSSQSLLNSRTRKNYLAWYQQKPGQSPKLLIFWASTRKSGVPDRFTGSGSGTYFTLTINSVQTEDLAVYYCTQSYSLRTFGGGTKLEIK
notes: also called F332-5D4-2; F332-5D4 (5F8)
With B1, the “% residual fluorescence of labeled mAb” value with human CD3 [1] came out at 73%; with human CD3 [7] it was 49%; with human CD3 [3], 10%; with human CD3 [12], 93%. In addition, the Kd in the assay with Cynomolgus CD3 came to 0.64 nM; in the assay with human CD3 [8], 0.61 nM; with human CD3 [9], 0.7 nM. For the same molecule, the “% max ref. OKT3 (dTomato activation)” value with human CD3 [10] was determined as 109%. Also, the “EC50 of dTomato induction (CD69 promoter), Jurkat-CD69-dTomato cells, 24 h” value (“EC50 of dTomato induction” below) with human CD3 [10] is 0.27 µg/mL. The same molecule displayed an MFI with human CD3 [11] of 326 MFI.

B2: F332-10B6 (antibody, mouse IgG2a, V domains shown)
VH: QVQLQQPGAELGKPGTSVNLSCKASGYTFTDYWIHWVKQRPGQGLEWIGNINPNSGDTNYNENFKTKATLTVDRSSSTAYMQLSSLTSEDSAVYYCTRDISGQYYFDFWGQGTTLTVSS
VL: DIVMSQSPSSLAVSAGEKVTMSCKSSQSLLNSRTRKNYLAWYQQKPGQSPKLLIYWASTRESGVPDRFTGSGSGTDFTLTISSVQAEDLAVYYCIQSYNLRTFGGGTKLEIK
notes: also called F332-10B6-2; F332-12B5-1
With B2, the “% residual fluorescence of labeled mAb” value in the assay with human CD3 [1] was found to be 80%; with human CD3 [7], 56%; in the assay with human CD3 [3], 32%; with human CD3 [12], 94%. For the same molecule, the Kd with Cynomolgus CD3 came to 2 nM; with human CD3 [8], 30.1 nM; in the assay with human CD3 [9], 3.7 nM. Moreover, the “% max ref. OKT3 (dTomato activation)” value with human CD3 [10] is 60%. In the assay with human CD3 [10], the “EC50 of dTomato induction” value was 0.23 µg/mL. This molecule had an MFI in the assay with human CD3 [11] of 143 MFI.

B3: F332-13B4 (antibody, mouse IgG2a, V domains shown)
VH: QVQLQQSGPELVKPGASVKISCKASGYSFTNSYVHWVKQTPGQGLEWIGWIYPGSTNIKYNEKFKGKATLTADTSSSTVYMQLSSLTSEDSAVYFCARDGSYFFDYWGQGTTLTVSS
VL: DIVMSQSPSSLAVSAGEKVTMTCKSSQSLLNSRTRKNYLAWYQQKPGQSPKLLIYWASTRESGVPDRFTGSGSGTDFTLTISSVQAEDLAVYYCKQSYILRTFGGGTKLEIK
notes: also called F332-13B4-2
In the case of B3, the “% residual fluorescence of labeled mAb” value with human CD3 [1] is 72%; in the assay with human CD3 [7] it was 43%; with human CD3 [3], 8%; with human CD3 [12], 79%. Also, the Kd is 0.64 nM with Cynomolgus CD3, 0.05 nM with human CD3 [8] and 0.6 nM with human CD3 [9]. Moreover, the “% max ref. OKT3 (dTomato activation)” value in the assay with human CD3 [10] was determined as 90%. In addition, in the assay with human CD3 [10], the “EC50 of dTomato induction” value turned out to be 0.47 µg/mL. The molecule further came in with an MFI with human CD3 [11] of 373 MFI.
